Results as given in the Immune Epitope Database (IEDB).
pKd: −log10 of the molar value.

Assays:
Experiment in all cases: IEDB peptide-MHC binding, purified MHC/direct/fluorescence; filed as Kd, often an IC50 or EC50 that approximates it; ≥ and ≤ were set here for values at or beyond the usual limits of such assays
HLA-B*58:01 = molecular target: HLA-B*58:01
HLA-A*01:01 = molecular target: HLA-A*01:01
HLA-A*24:03 = conditions: source organism: Haemophilus influenzae
HLA-A*26:01 = molecular target: HLA-A*26:01
HLA-B*35:01 = molecular target: HLA-B*35:01
HLA-B*27:05 = molecular target: HLA-B*27:05
HLA-B*08:01 = molecular target: HLA-B*08:01
HLA-A*69:01 = molecular target: HLA-A*69:01
HLA-B*15:01 = molecular target: HLA-B*15:01
HLA-A*11:01 = molecular target: HLA-A*11:01
HLA-B*40:01 = molecular target: HLA-B*40:01
HLA-A*31:01 = molecular target: HLA-A*31:01
HLA-A*02:01 = molecular target: HLA-A*02:01
HLA-A*03:01 = molecular target: HLA-A*03:01
HLA-A*80:01 = molecular target: HLA-A*80:01
HLA-B*44:02 = conditions: source organism: Giardia lamblia ATCC 50803
HLA-B*39:01 = conditions: source organism: Giardia lamblia ATCC 50803
HLA-B*07:02 = conditions: source organism: Giardia lamblia ATCC 50803
[1] = source organism: Haemophilus influenzae
[2] = source organism: Mammarenavirus lassaense
[3] = source organism: Giardia lamblia ATCC 50803

YATVAGHEG
pKd (HLA-B*58:01; [1]): ≤ 4.70 | pKd (HLA-A*01:01; [1]): ≤ 4.70 | pKd (HLA-A*24:03): 6.05 | pKd (HLA-A*26:01; [1]): ≤ 4.70 | pKd (HLA-B*35:01; [1]): 6.54 | pKd (HLA-B*27:05; [1]): ≤ 4.70 | pKd (HLA-B*08:01; [1]): ≤ 4.70 | pKd (HLA-A*69:01; [1]): ≤ 4.70 | pKd (HLA-B*15:01; [1]): 4.98 | pKd (HLA-A*11:01; [1]): ≤ 4.70 | pKd (HLA-B*40:01; [1]): ≤ 4.70 | pKd (HLA-A*31:01; [1]): ≤ 4.70 | pKd (HLA-A*02:01; [1]): 6.18 | pKd (HLA-A*03:01; [1]): ≤ 4.70

DTPGERNPY
pKd (HLA-A*01:01; [2]): ≤ 4.70 | pKd (HLA-A*80:01; [2]): ≤ 4.70

AIDLDPVVY
pKd (HLA-A*80:01; source organism: Dengue virus 1 Singapore/S275/1990): ≤ 5.30

ARADGILRF
pKd (HLA-B*58:01; [3]): ≤ 4.70 | pKd (HLA-A*01:01; [3]): ≤ 4.70 | pKd (HLA-B*44:02): ≤ 4.70 | pKd (HLA-A*26:01; [3]): ≤ 4.70 | pKd (HLA-B*35:01; [3]): 5.39 | pKd (HLA-B*39:01): 5.59 | pKd (HLA-B*27:05; [3]): 6.70 | pKd (HLA-B*08:01; [3]): ≤ 4.70 | pKd (HLA-A*69:01; [3]): ≤ 4.70 | pKd (HLA-B*15:01; [3]): ≤ 4.70 | pKd (HLA-A*11:01; [3]): ≤ 4.70 | pKd (HLA-B*40:01; [3]): 5.50 | pKd (HLA-B*07:02): ≤ 4.70 | pKd (HLA-A*31:01; [3]): ≤ 4.70 | pKd (HLA-A*02:01; [3]): ≤ 4.70 | pKd (HLA-A*03:01; [3]): ≤ 4.70
